Source: patent publication US20210347908A1 (ELPISCIENCE SUZHOU BIOPHARMA, published 2021)

How the values were obtained:
[1] = target: T1, 6×His tagged human SIRPα v2 ECD recombinant protein (human); test: SPR (Biacore)
Experimental: (§1) Anti-SIRPα chimeric antibodies were characterized for binding affinity against human SIRPα v1, human SIRPα v2 and C57BL/6 mouse SIRPα using Biacore (GE). Briefly the antibodies to be tested were captured to CM5 chip (GE) using Human Antibody Capture Kit (GE). The antigens of 6×His tagged human SIRPα v1, human SIRPα v2 and C57BL/6 mouse SIRPα ECD recombinant proteins were serially diluted for multiple doses and injected at 30 μl/min for 180 s. Buffer flow was maintained for dissociation of 400 s. 3 M MgCl₂ was used for chip regeneration. The association and dissociation curves were fit with 1:1 binding model, and the Ka/Kd/KD values for each antibody were calculated.
(§2) hu035.01, the first version of humanized 035, was characterized by FACS assay using CHOK1-human SIRPα v1-1B4 cells, ELISA assay using Fc tagged human SIRPα v2 ECD recombinant protein and SPR analysis using the antigen of 6×His tagged human SIRPα v2 ECD recombinant protein (refer to methods described in Example 3.4, Example 3.3 and Example 4.3). […] In particular, hu035.01 cannot be detected to bind with C57BL/6 mouse SIRPα ECD in ELISA assay possibly due to reduced binding activity (FIG. 5B).

[2] = target: T2, full length human SIRPα v1 stably expressed on CHOK1 cells (human, UniProt P78324 31-504); test: FACS on CHOK1-human SIRPα v1-1B4 cells
T2 construct: whole, on cells; also called CHOK1-human SIRPα v1-1B4 cells; CHOK1-human SIRPα v1
Experimental: Species cross reactivity of the purified hybridoma antibodies against human, cyno and mouse SIRPα was determined by FACS assay using CHOK1-human SIRPα v1-1B4 cells, CHOK1-cyno SIRPα-2A2 cells, and CHOK1-C57BL/6 mouse SIRPα-2.22 cells, which stably expressing SIRPα protein. Briefly the antibodies were incubated with 2×10⁵ target cells at 4° C. for 1 hour. After washing, fluorescence labeled anti-mouse or anti-human IgG 2nd antibody (Life Technologies) was added and incubated at 4° C. for 1 hour. Geometric median fluorescence intensity was detected and EC₅₀ was calculated. In particular, it is noted, in contrast to the other antibodies tested in the same experiment, 060 cannot bind with cyno SIRPα and 035 has cross reactivity against C57BL/6 mouse SIRPα.
as §2

[3] = target: T1, 6×His tagged human SIRPα v2 ECD …; test: SPR (Biacore), antibody captured, 6×His tagged human SIRPα v2 ECD as analyte
Experimental: as §1, §2

[4] = target: T3, 6×His tagged C57BL/6 mouse SIRPα ECD recombinant protein (mouse (C57BL/6), UniProt P97797 32-373); test: ELISA on coated mouse SIRPα (C57BL/6) ECD, antibody at 10, 1 and 0.1 ug/ml [right panel mSIRPα ECD (C57BL/6]
T3 construct: extracellular domain; bought; also called mSIRPα (C57BL/6); mouse SIRPα (C57BL/6) ECD
T3 sequence: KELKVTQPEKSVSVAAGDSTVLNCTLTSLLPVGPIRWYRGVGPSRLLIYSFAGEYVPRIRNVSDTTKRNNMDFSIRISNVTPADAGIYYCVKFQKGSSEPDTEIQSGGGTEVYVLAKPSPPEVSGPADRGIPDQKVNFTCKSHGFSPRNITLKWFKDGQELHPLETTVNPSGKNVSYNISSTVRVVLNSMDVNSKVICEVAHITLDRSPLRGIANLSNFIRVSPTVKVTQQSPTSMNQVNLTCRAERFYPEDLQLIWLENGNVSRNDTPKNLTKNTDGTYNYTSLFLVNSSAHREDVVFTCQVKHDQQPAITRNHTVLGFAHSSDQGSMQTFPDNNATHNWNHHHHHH

T1 sequence (chain, as listed by the source): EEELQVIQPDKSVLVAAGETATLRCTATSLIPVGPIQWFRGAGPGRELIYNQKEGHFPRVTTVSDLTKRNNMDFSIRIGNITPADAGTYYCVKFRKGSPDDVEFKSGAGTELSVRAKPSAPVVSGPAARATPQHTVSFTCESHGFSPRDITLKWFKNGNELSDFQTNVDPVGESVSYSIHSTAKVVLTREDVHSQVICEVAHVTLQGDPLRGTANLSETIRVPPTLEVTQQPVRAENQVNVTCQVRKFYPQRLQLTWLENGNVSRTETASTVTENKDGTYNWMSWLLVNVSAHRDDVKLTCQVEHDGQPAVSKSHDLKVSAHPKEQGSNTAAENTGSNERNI

B1: humanized antibody hu035.01 (antibody, V domains shown)
VH: QIQLVQSGSELKKPGASVKVSCKASGYTFTNYAMNWVRQAPGQGLEWMGWINTYTGEPTYAQGFKGRFVFSLDTSVSTAYLQISSLKAEDTAVYYCARTRGYYDFDGGAFDYWGQGTLVTVSS
VL: DIQMTQSPSSLSASVGDRVTITCRASQNVGTHLAWFQQKPGKAPKSLIYSASYRYIGVPSRFSGSGSGTDFTLTISSLQPEDFATYYCQQYNTYPLTFGQGTKLEIK
notes: first humanized version of 035 (CDR graft on VH7-4-1 / VK1-16)
Kd [1]: 53.4 nM | EC50 (read off the curve) [2]: ~0.5 µg/mL | koff [3]: 0.00065 s⁻¹ | kon [3]: 12200 M⁻¹ s⁻¹ | binding result [4]: no binding (tested: 10 ug/ml)
